test: soluble on expression in E. coli; label from the status in PepcDB or PDB records

| Sequence | soluble on expression in E. coli |
| --- | --- |
| GPGSMPKEPILHAELREWLEEYRRHRAFNPIAWIEEKCTKLNEYMRNNKLRGCVTNVSGGVDSAVVLSLCSRAQRMEGSPIVRNVGICQPICSSAWALERGRENIRAAGAEEVVVDQTDIHRQLSLSVEAAVGIDGKDFARGQLRSYMRAPVGYYVAQLCSQSGTPTIVMGTGNMDEDGYLGYFCKAGDGVVDVQLISDLHKSEVFKVARELGVPENTLQAAPSADLWDGQTDEEELGFPYDFVELYTGYFLKLNNGEREMKKKSLSAEARHQFEAYMKSCEETHCRNAHKLNGIVNL | soluble |
| GPGSMPPKSAVKKVDSAAATGKRKKLSFAESTVKAAAAAIQTTHVNVPVRAAAKHAPLAAAPRKKGQNAKKTTATTSSAARQRAATDLKRSGIVKAKRAEEEVAAPPVPSDEENSRDDEDDMLNGGAAVDSDTDDLSDMADRTPSDDELGAGKQASSSASRQRDSNGTVEPYRAVRLSFLPPEFQEPQLYKFLNQFGATVLNCFCVRSKRTHRSRGIAYVEFDKESAIPLVVEECNGMVLGGKAVRARAVTMRRRMPSRQMVDRRRALAYAYKTRGAPLKQHDVRRKGPVGLLIKAVRTEKNNNNYLKSLGIDFQTDFFQSQLATLPPVLLKKKRSRSKKSEKGTVATAGMAKAVVKTTDIATVASKSSPKRATRKAPATKTK | soluble |
| GPGSMPRYYTPHEVRAHCFEDDAYVSINGKVLDITPLIQMYQGTRYASLLQPLILAAGTDMTHLLDKKTMDFKTCIDPETGFRTYAQPFGRFAHTPTVLPDSSIDLSYEVPWWQDERYVIGQLTRKTRKIRIVNTLNGHEHTLEVCSEETLREIVMTRYLSHNAHALSYTWRRLDSEPRDLDMDKTLDENGVLDESEEFESLGLNADYYIPALHLYYDDDLTEA | soluble |
| GPGSMPVEQLEEENKTLRTKVRVLEEELKHRNAECVRLRDELQLLSGVMRENDSQRQLIDTLREELEFSRKSHAEAVEALNVGEKQRRNEEHRQRMARVQLQLSTSGMDVKTGTSSQAGGAVLPVVTGGVVPTSSGVEIICKSSNISSLGFAPVQRPPDFAGSAYGQFYRGVANSADLVEEEDEVSRLMAMAKDGAMLDIKHAEVTDGEENELLERYKALKLWKPN | not soluble |
| GPGSMQEERERAERSKLLREEHDFWVEFRDRERAERLKYMTEQEIVELLQREADEATRESNRADQLHQRAMEDALRRRHITADVQRGGEDTVLARRKGEVQVDGIRLAAERETSVMVGAMTVAERTRRAGVERQQREEDLTAKCQQLMTELEEARASATRAQRYQKRAEDDLTREQENTRKEQSDAAACKETNDKLLKELAEVRQQLTASEAERKKAEAAKVQAAREVAQKEKELTCLRKRDDELAAQQASQKAAAEDEKQRAFTFQEELKTYRDALEKEQAARNRAETELAALREQAKTLEAKVAAASAPDPKQVADNMRKLKAVADDARKAQADLVKERQARESAEAAAVEARDALAKEQAVREKVEKEAQRALAASSVSVLHVQKAESDRKKLAEAEKKLEEMRRARNRDEVEKAALKREMEKVKRDLEGEASARAQFEQLASQAVSADDRVPQREVDQLRKALQISQEQCNAARRDTVACQQNAAREIALLKAWCERLQQQHRMQQQVLQSDEEFTPRTATPTPHCRTPRSVRKRIPQDLVADQRQAEEKAASDQRIRELEAHVTRLQVDLGRSKDQERRAIAGAEQARKALEASTATSMPDSGKASPGPSERGIAKEQEAKERAMVQRLNALERECAEAQKKYDDLVVAHRQSEAARCEAELQVAAQRAQIEQRQREEPQSYTSALGNYETSRLEPISATAGESTSALEERIKELERHLAEERAARQAAERRAEESQKLCAAPGTDAMSAAKRAEANVSSSGAGAKGKPQKVKSACC | not soluble |
| GPGSMRAEETAPSIPPPPTISPQKTSHRTAVVPSDPSNRPTQSLRSTKELMRQRRSTVVPRITDIFALGQLHEKGERVGSRNVCPPTWKQRMSLAGQFTTFCRTHEQPINEKSCAVILMAILDVAPSTRPQHARMLRSVLRMDRTPLDMMILGLKETAARSETKQQRQQSRAIYRRCACASSGRNSMAPPMRTTVNENETARTLRRSCFSATK | soluble |
| GPGSMRKKSVQETDEVPNERLPHILSSSDDPTEVNKALVVLLRRLRAGAGEPISLSPATLSQLLRILVGRTDDAWLEVRKKIAFVFSELLSKDNADVLADALLYGRLHTTTSSEARASRIDFGGVDENSAPDPFTSLKKMKEILGKLAEAHGTVERCVPAADVFRTFLRLPALLEVIMSPEPLFDVEDNDGSAPAHHATKKRCFNDTCIGILCRSAQAYTTALCTETWRSLSTALCTNKALSAPLLLCYFNEFVGMFLGCLEGDNFVAKLHALELIDAILEDAAFLKARPKLAESPALLCALLPLTNSRSQHIRFLTFDAIKVFIAKGNKPAPIRYILYINRETLARYVEDYSPNEATIGKVLSAEKEKILRSLLSLEPLSHEEEVLLNASA | not soluble |
| GPGSMRRANEVAREMWAPSTWERRMSLAGQFTTFCCTHERPIKEESCAAFLMAIEVAPSTRPQYARMLRSMLEMDRTPLDMMIVGLQKKIAARSETKQARLLTKEEMNQLIRSRTDWKERVVLRLAWITASCWSEIEALIPNNFTLERDGALILDWSLAPKTARADPHRASRFVRIRGLDAFDTIKLCRTLQHSEKLTNITNAQVERALVPWNATAHSIKRGALRRAAQIVEAYNFNPHVISQLAMHVDPFDLPQNTVRYLGKHTTLLTQVSSLVAFL | not soluble |
| GPGSMRSAVNLGGAPRVPSQRLPAFEGVSPRIVARQVPAHRGEYVSLVLRPTSLNAQRNSLVASCVVTDESVEVMGLPADAEVAQVNEFVCYINPSSGELEYYQHGTYNDEYDVDVYRKLLELCPKFPALF | not soluble |
| GPGSMSAIPPPHYVRLRRYNLSIFVHCDVHNDTVQAIKERYGKLTGHIFYNARLYLGQQSLDDFLTLYGCGIEAEGAELVVVHSKGAKGDGTSEHIWETVEEAMAAPQGDSLNSPEVTAEGTAKLDSMEAAATSNEVGNQQQQQAADARGGTGAELNVGFVGV | soluble |
| GPGSMSDVDDLIEELFPKKEGGRAPPEGKGGAACEPPASQSNWDDTDEANSEAETTTRNRGTSVSLEAAASTTANVGDGRGEDFDDSDESVEETVMGGRHTVPFPPTPGNMSMACNSKCFVTNVGSGELRHPSVAQLLLTGEGKYDKCSSNEQLLLRKGAFHALKADAGNGCTDKTADEDGRKGGCPFILCRKCNYTVIRLQDAEWDDEEGKMDLYLTVRNFYPDWSRLASSLPVGQMRRGEQNTVLKTCPDSAAYCCQCSWLTVKCAQEVIDTRVTDHTKFVGKELTCCFATQLPLISGEKRRPPLWVCGGHVPKH | soluble |
| GPGSMSDWETIAKESEKVLVKPDIKGCHEILMKAYEGGNHHPEILWRLGRSYYEMANESTDPAVREPYLKEGMELCKKSVEADPHNFASHKWLGILISDQKVGNKEKIANAYIIRDHFLKAVELNPNDATSLHCMGNWCFKILQIGWLERKAAALILGEPPSSTYEECLGYLLRSAEAGNTIHNSTMIGDVYAQQSMHDEARKWYQKAIDMPAYTELQKRNHDAAVAKIKKL | soluble |
| GPGSMSEPHVPTAAAQQPSAEATANAALTADSTVHTSPQAPPPPAASGASTVSANVAEVKSVTATLSDVADSTEPLLVGKVVSSEIAQARSQPCTSDLNTAQSGAGAPVDANVGEQDRCSPPAKSTSSSSSSHSGEESSDEAADFETKELMFAFGRYVGQVNPQTGLRHGHGCQYYNNGNVYTGEWRDGAPDGFGEKRYRNGDVYRGNWRQGKRSGRGVYLFVQGDTYEGMYADDKPEGQGTYATLKGDRYTGQWKAGQRHGTGRETLANGQVFVGNWRYGKKQGRGKLYLPGSEKCIYGIWNNDRFFRELTANEMGADGAEDVVDELGTQRRPSALSVALPGAKAPPPSASLADRVRMGVTALENRMESLGKALERVITGGDGDESAHVPRAAAMGAASSTAGDVAVSEECTEPPAQGFVVNSHQANDEDGEQG | soluble |
| GPGSMSGGLPRQFVLKVERHVPVNKGMGLAYPTVPGGSDVADADATPHAGAGERHQSNEAGGDMASGTLKDEAGSIHLSHEKETQTEEVPLPTCEANACDVDGTHCLSVDALDMAVRSNGAALRQMRSSSHLTAAFHTSASDDYGDSISPNPSDRQSFIGSLRVSYVELMSGESIPVYFPPSLGTSGGVEGKTMTLSEDLGCENQ | not soluble |
| GPGSMSGSTQRAEQQRRIQQLHERLELYNIADRHTDPTSNSAGGVGFASAGGLETGGGDKAPTTKPSRAAPMSGSPNLKPTSAPTSNAFFFTSSLPRRAADAGAPSSTLGLQQGNGSGSRATAAPSATEIAEVSRASPTPQQQPQVQMPPPAPAPQLARNLAQEFFGSAASPTHASPTRAASRSSAMTSGAAASPVAPERPSVTAAYPESATEATAAATAAKAGSPPLAANVFDYYEDFKSDGSEGDEYEVEEVEECMEDEEDYVGDGEDTDEHARGKASLTLEDVLRRLHRACSGSVDHAAAASPLEQAMAAASASSPLARDPSLATATPAAAAATRVTLTAAAASPIGTTYPFLQQATEVYRQRHLYKATQEHQQHHSPFNTGYAWSTDEETSVTDTSTSEPTEGLGDASESRSASVSSSASAASKGHLTAANAAAAVQNSGLLAAALQPLADTAIATPTASDRASAEKVLPSSALCFDQLETAYRRLLILQQGAKYVSELAGPECFPRPLPRQEEARALAEQRDMVVKRDTEMRAAPPAGSSLEDLRQRESAAIERTLGLLREKFDAAMKSLKPVADREAAIEGKRRTLKQRELDIAKQREARLIVEREVAAAEKRLMERSEQLRKREEDYSARLQQHDHQQKAAQEQIGEVEQLSKQVSSWLAILEERDRRLARKEKRLQRVQADLLKRTEDIIVWKRATQRIKQIPPPPSPPRIS | not soluble |
| GPGSMSRYSTGIENIPSLFDLASALTGFIADFTQVVFGNTQTSFTAAALEETDRGNYDPVARSWEGTGGLNYRVPLYPIPSERHTRERTRNIKILMDNCRRICVEDELPSTKEELQFWTAYRFMKYQMYLTPTCVIMPPLYVMWRMFHDRIPRPFRGRTIPVTLSLALAEQWADATYPGHQFLSTALRAKTPMGDAARAEWLRLQPIDIPYYIYAAYQFQHFFGNVPKEILFGGDIAGYCS | not soluble |
| GPGSMSVEASRPTRSQDPLPAAVIREFLEMHQQCNDQSLGQGESPTGTEKDGTRAAEARVVSAPLRVEVETTHGYVYEGRLVAMDEFYNVTLTEATKRRERLCDVERSLLTMHGFPAPAASPSTRREYVGSVLVRSGNLLMIRFPQGEGNATRVLHGAFKSMVMKVRRQINLERQKNRMERRRRKQLPVKPQSLVGKAGDPPKRTKAKKE | soluble |
| GPGSMTLYSIYIFNRYGDNIFYKEWNRTTAPQEGEAGLVAGFIYTLQHFSSQLSSSGEGGFYAVRTPLYKLHYNETMTGYRVALLSDKDLKTDVVQNILRKMFSDVFQRYVTKDPNYSHTQGRVITSTAFGEALDQFFHSQKIL | not soluble |
| GPGSMTNPSNSNLQALREELCTPGLDQGHLFEGWPETVDECNERQIALLTDLYMFSNMYPGGVAQYIRNGHELLARESEEVDFAALEMPPLIFEAPSLHRRTAERTALENAGTAMLCKTVFVLVAGGLGERLGYSSIKVSLPVETATNTTYLAYYLRWAQRVGGKEVPFVIMTSDDTHDRTLQLLRELQLEVPNLHVLKQGQVFCFADSAAHLALDETGKLLRKPHGHGDVHSLIYNATVKRDVVPDSGDGTATAQPLVNDWLAAGYESIVFIQDTNAGATITIPISLALSAEHSLDMNFTCIPRVPKEPIGLLCRTKKNSGDPWLVANVEYNVFAEVSRALNKDGGDEVSDPTGFSPFPGSVNTLVFKLSSYVDRLRESHGIVPEFINPKYSDETRRSFKKPARIESLMQDIALLFSEDDYRVGGTVFERFSYQPVKNSLEEAAGLVAQGNGAYCAATGEAAFYELQRRRLKAIGLPLFYSSQPEVTVAKDAFGVRLFPIIVLDTMCASSGSLDDLARVFPTPEKVHIDQHSTLIVEGRVIIESLELYGALTIRGPTDSMALPHVVRNAVVRNAGWSVHAILSLCAGRDSRLSEVDRIRGFVLKKTAMAVMDCNTKGESEAGAPSGAADPAKL | soluble |
